± gives the uncertainty stated by the source.

This data set is described as follows: self-splicing fitness, log relative to wild type (ln ratio); higher = more splicing; Tetrahymena group I intron in knt gene, E. coli kanamycin selection, DiMSum; sequences stand for … in CUCUCU…GGAGGGAAAAGUUAUCAGGCAUGCACCUGGUAGCUAGUCUUUAAACCAAUAGAUUGCAUCGGUUUAAAAGGCAAGACCGUCAAAUUGCGGGAAAGGGGUCAACAGCCGUUCAGUACCAAGUCUCAGGGGAAACUUUGAGAUGGCCUUGCAAAGGGUAUGGUAAUAAGCUGACGGACAUGGUCCUAACCACGCAGCCAAGUCCUAAGUCAACAGAUCUUCUGUUGAUAUGGAUGCAGUUCACAGACUAAAUGUCGGUCGGGGAAGAUGUAUUCUUCUCAUAAGAUAUAGUCGGACCUCUCCUUAAUGGGAGCUAGCGGAUGAAGUGAUGCAACACUGGAGCCGCUGGGAACUAAUUUGUAUGCGAAAGUAUAUUGAUUAGUUUUGGAGUACUCGUGGUCG
The gist of the method: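 Pooled colonies went to amplicon sequencing on an Illumina HiSeq 2500 after six replicate transformations. The plates were LB agar with 100 μg/mL carbenicillin, 50 μM IPTG and 0.2% rhamnose, with or without 25 μg/mL kanamycin, incubated overnight at 37°C or 30°C. The E. coli BL21(DE3) library had all eight P1ex-region intron nucleotides randomised, the intron placed in the knt kanamycin-resistance gene on pET-22b(+). DiMSum fitness is the error-weighted combination of replicate fold changes, kanamycin against none, normalised to wild type.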

Consider ACUGAGCAAUAUUACGCGCU, for which the “self-splicing fitness (ln)” value (30 °C) was -3.03 ± 0.23 and the “self-splicing fitness (ln)” value (37 °C) was -2.1 ± 0.26.
As for ACUGAGCAAUAUUACGCGUA, the “self-splicing fitness (ln)” value runs as follows: (30 °C) -1.8 ± 0.15; (37 °C) -3.16 ± 0.28.
Consider ACUGAGCAAUAUUACGCUAG, for which the “self-splicing fitness (ln)” value was -1.72 ± 0.2 (30 °C) and -3.23 ± 0.34 (37 °C).
Consider ACUGAGCAAUAUUACGGAAC, for which the “self-splicing fitness (ln)” value (37 °C) was -1.92 ± 0.29.
As for ACUGAGCAAUAUUACGGAAG, the “self-splicing fitness (ln)” value was -2.52 ± 0.13 (30 °C) and -1.21 ± 0.2 (37 °C).
For ACUGAGCAAUAUUACGGGCU, the “self-splicing fitness (ln)” value is -3.34 ± 0.17 (30 °C) and -2.92 ± 0.25 (37 °C).
For ACUGAGCAAUAUUACGUAGA, in that order: -3.68 ± 0.17 and -2.51 ± 0.23.
Take ACUGAGCAAUAUUACGUAUC: the “self-splicing fitness (ln)” value (37 °C) was -2.99 ± 0.44.
Regarding ACUGAGCAAUAUUACGUCUA, the “self-splicing fitness (ln)” value (37 °C) was -2.44 ± 0.25.
Turning to ACUGAGCAAUAUUACGUCUC, the “self-splicing fitness (ln)” value (30 °C) was -3.61 ± 0.2 and the “self-splicing fitness (ln)” value (37 °C) was -3.51 ± 0.33.
For ACUGAGCAAUAUUACGUCUU, in that order: -2.57 ± 0.13 and -1.11 ± 0.12.
With ACUGAGCAAUAUUACGUGAA, the “self-splicing fitness (ln)” value runs as follows: (30 °C) -2.94 ± 0.17; (37 °C) -2.09 ± 0.17.
For the sequence ACUGAGCAAUAUUACGUGGC, the “self-splicing fitness (ln)” value (30 °C) is -3.3 ± 0.22 and the “self-splicing fitness (ln)” value (37 °C) is -1.79 ± 0.25.
Regarding ACUGAGCAAUAUUACGUGGG, the “self-splicing fitness (ln)” value reads like this: (30 °C) -3.55 ± 0.21; (37 °C) -2.28 ± 0.16.
For ACUGAGCAAUAUUACGUGGU, in that order: -4.07 ± 0.14 and -2.56 ± 0.13.
ACUUAGCAAUAUUACGAAUA: the “self-splicing fitness (ln)” value (37 °C) was -1.76 ± 0.31.
Turning to ACUUAGCAAUAUUACGACCA, the “self-splicing fitness (ln)” value is -0.584 ± 0.12 (30 °C) and -1.01 ± 0.12 (37 °C).
In the case of ACUUAGCAAUAUUACGAGCA, the “self-splicing fitness (ln)” value by setting is: (30 °C) -1.2 ± 0.12; (37 °C) -0.129 ± 0.13.
As for ACUUAGCAAUAUUACGAUGG, the “self-splicing fitness (ln)” value was -2.19 ± 0.099 (30 °C) and -1.16 ± 0.12 (37 °C).
Turning to ACUUAGCAAUAUUACGAUUA, the “self-splicing fitness (ln)” value (30 °C) was -1.05 ± 0.13 and the “self-splicing fitness (ln)” value (37 °C) was -1.55 ± 0.13.
As to ACUUAGCAAUAUUACGCAGA, the “self-splicing fitness (ln)” value (30 °C) is -2.32 ± 0.26 and the “self-splicing fitness (ln)” value (37 °C) is -0.913 ± 0.15.
For the sequence ACUUAGCAAUAUUACGCAUU, the “self-splicing fitness (ln)” value reads like this: (30 °C) -1.27 ± 0.11; (37 °C) -1.47 ± 0.17.
Turning to ACUUAGCAAUAUUACGCCAC, the “self-splicing fitness (ln)” value by setting is: (30 °C) -3.2 ± 0.31; (37 °C) -3.59 ± 0.31.
With ACUUAGCAAUAUUACGCGCU, the “self-splicing fitness (ln)” value is -0.535 ± 0.094 (30 °C) and -0.305 ± 0.097 (37 °C).
Turning to ACUUAGCAAUAUUACGCGUC, the “self-splicing fitness (ln)” value was -3.62 ± 0.25 (30 °C) and -1.83 ± 0.26 (37 °C).
For ACUUAGCAAUAUUACGCUCU, the “self-splicing fitness (ln)” value (30 °C) is -0.715 ± 0.13 and the “self-splicing fitness (ln)” value (37 °C) is -0.397 ± 0.14.
For the sequence ACUUAGCAAUAUUACGGCAU, the “self-splicing fitness (ln)” value is -1.01 ± 0.071 (30 °C) and -0.0593 ± 0.088 (37 °C).
For the sequence ACUUAGCAAUAUUACGGGGU, the “self-splicing fitness (ln)” value reads like this: (30 °C) -2.71 ± 0.16; (37 °C) -2.73 ± 0.27.
For ACUUAGCAAUAUUACGGUCA, in that order: -1.88 ± 0.15 and -0.773 ± 0.15.
In the case of ACUUAGCAAUAUUACGGUUU, the “self-splicing fitness (ln)” value is -1.23 ± 0.11 (30 °C) and -0.718 ± 0.16 (37 °C).
Take ACUUAGCAAUAUUACGUGGA: the “self-splicing fitness (ln)” value (30 °C) was -2.47 ± 0.13 and the “self-splicing fitness (ln)” value (37 °C) was -2.7 ± 0.16.
In the case of AGAAAGCAAUAUUACGAAAA, the “self-splicing fitness (ln)” value (30 °C) is -1.74 ± 0.13 and the “self-splicing fitness (ln)” value (37 °C) is -0.577 ± 0.15.
With AGAAAGCAAUAUUACGAACG, the “self-splicing fitness (ln)” value runs as follows: (30 °C) -0.489 ± 0.084; (37 °C) -0.004 ± 0.12.
Turning to AGAAAGCAAUAUUACGAAUU, the “self-splicing fitness (ln)” value is -0.791 ± 0.089 (30 °C) and -1.32 ± 0.11 (37 °C).
For the sequence AGAAAGCAAUAUUACGACAA, the “self-splicing fitness (ln)” value reads like this: (30 °C) -0.576 ± 0.087; (37 °C) 0.0351 ± 0.089.
Regarding AGAAAGCAAUAUUACGACAG, the “self-splicing fitness (ln)” value is -2.36 ± 0.11 (30 °C) and -0.954 ± 0.11 (37 °C).
As to AGAAAGCAAUAUUACGACUC, the “self-splicing fitness (ln)” value by setting is: (30 °C) -1.53 ± 0.21; (37 °C) -0.214 ± 0.2.
As for AGAAAGCAAUAUUACGAUUG, the “self-splicing fitness (ln)” value by setting is: (30 °C) -3.82 ± 0.27; (37 °C) -1.93 ± 0.21.
Take AGAAAGCAAUAUUACGCAUG: the “self-splicing fitness (ln)” value was -1.66 ± 0.1 (30 °C) and -0.374 ± 0.1 (37 °C).

The values above are taken from the supplement of paper PMC7877785.
